Assay results published in paper PMC9712121 (Nature, 2022).

Target: the molecule itself
Experiment: negative-stain EM; TNKS2 SAM at 104 μM on carbon, 2% uranyl acetate; 3D refinement with D1 symmetry, projections compared with the SAM–PARP model and PDB 5JRT

B1: TNKS2 SAM (867–940), wild type (domain or fragment, human, UniProt Q9H2K2 867-940, looked up)
chain: EKKEVPGVDFSITQFVRNLGLEHLMDIFEREQITLDVLVEMGHKELKEIGINAYGHRHKLIKGVERLISGQQGL
notes: Tankyrase 2 (TNKS2), human, SAM domain, residues 867-940; also called SAM domain
- binding result: binds
